Results reported in paper PMC12373829 (Nature Communications, 2025).

Assays:
[1] = molecular target: T1, acarbose-preferred glucosidase (Apg) (Klebsiella grimontii, UniProt A0ABD7ANA7, DEL138-152); experiment: X-ray crystal structure; assay type: binding
T1 sequence (A0ABD7ANA7 1-605 DEL138-152): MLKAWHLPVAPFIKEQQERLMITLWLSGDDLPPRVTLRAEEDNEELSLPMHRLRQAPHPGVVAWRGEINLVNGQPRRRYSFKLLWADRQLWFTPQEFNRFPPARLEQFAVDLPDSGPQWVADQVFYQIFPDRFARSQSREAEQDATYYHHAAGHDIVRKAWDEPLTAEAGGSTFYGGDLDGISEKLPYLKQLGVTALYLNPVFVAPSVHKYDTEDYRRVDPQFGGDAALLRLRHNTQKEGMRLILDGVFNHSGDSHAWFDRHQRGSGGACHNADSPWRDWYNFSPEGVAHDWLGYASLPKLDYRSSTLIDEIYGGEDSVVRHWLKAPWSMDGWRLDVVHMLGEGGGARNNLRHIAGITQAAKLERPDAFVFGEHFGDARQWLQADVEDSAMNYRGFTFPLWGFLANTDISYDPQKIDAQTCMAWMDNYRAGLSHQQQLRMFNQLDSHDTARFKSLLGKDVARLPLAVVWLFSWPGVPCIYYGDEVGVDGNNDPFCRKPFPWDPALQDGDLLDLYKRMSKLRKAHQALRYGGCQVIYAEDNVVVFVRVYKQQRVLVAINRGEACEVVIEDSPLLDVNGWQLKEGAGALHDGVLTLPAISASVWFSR

[2] = molecular target: acarbose-preferred glucosidase (Apg), wild type (K. grimontii TD1); experiment: SEC
[3] = substrate: C[C@H]1O[C@H](O[C@H]2[C@H](O)[C@@H](O)[C@@H](O)O[C@@H]2CO)[C@H](O)[C@@H](O)[C@@H]1N[C@H]1C=C(CO)[C@@H](O)[C@H](O)[C@H]1O; experiment: purified protein; settings: active site
[4] = substrate: C[C@H]1O[C@H](O[C@H]2[C@H](O)[C@@H](O)[C@@H](O[C@H]3[C@H](O)[C@@H](O)C(O)O[C@@H]3CO)O[C@@H]2CO)[C@H](O)[C@@H](O)[C@@H]1N[C@H]1C=C(CO)[C@@H](O)[C@H](O)[C@H]1O; experiment: purified protein; settings: active site; D448 nucleophile, E373/R334 proton donor

OC[C@H]1O[C@H](O)[C@H](O)[C@@H](O)[C@@H]1O [glucose]
X-ray crystal structure (co-crystallization) [1]: Crystals of the glucose complex were obtained by co-crystallization of the ∆loop A mutant

acarbose-preferred glucosidase (Apg), wild type (enzyme)
stoichiometry N [2]: 2

B1: acarbose-preferred glucosidase (Apg) (Klebsiella grimontii) (protein)
chain: T1 sequence (A0ABD7ANA7 1-605 DEL138-152)
Km [3]: 6.642 ± 0.371 µM | Km [4]: 2.600 ± 0.652 µM
